Source: the supplement of paper PMC10598134
± gives the standard deviation.

Experiment: collision cross section of modified peptide (TIMS, N2, iRT-aligned); higher = larger / more extended gas-phase ion
How it was run: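 Collision cross section was derived from the Mason-Schamp equation. Each value averages 1–3 technical replicates of the most abundant feature per charge state, measured on a timsTOF Pro/HT in dda-PASEF mode (nitrogen, ~2.4 mbar) after a 120-min nanoflow C18 gradient at 60 °C. Synthetic peptide pools (~100 fmol/µL in 2% acetonitrile/0.1% formic acid, iRT standard spiked 1:40) were identified with MaxQuant, and 1/K0 was calibrated with three reference ions and aligned run-wise to the median iRT peptide deviation.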

[1] = charge state: 2, modification: Acetyl (K)
[2] = charge state: 2, modification: Trimethyl (K)
[3] = charge state: 3, modification: Trimethyl (K)
[4] = charge state: 2, modification: Glutarylation
[5] = charge state: 3, modification: Glutarylation
[6] = charge state: 3, modification: Succinyl
[7] = charge state: 2, modification: Dimethyl (K)
[8] = charge state: 3, modification: Dimethyl (K)
[9] = charge state: 2, modification: Formyl
[10] = charge state: 2, modification: Nitro (Y)
[11] = charge state: 2, modification: Propionyl
[12] = charge state: 2, modification: Methyl (K)
[13] = charge state: 3, modification: Methyl (K)
[14] = charge state: 2, modification: Butyryl
[15] = charge state: 2, modification: Hydroxyproline
[16] = charge state: 3, modification: Acetyl (K)
[17] = charge state: 2, modification: GlyGly (K)
[18] = charge state: 3, modification: GlyGly (K)

Sequence: VGEFSGANKEK [_VGEFSGANK(Acetyl (K))EK_]
- collision cross section [1]: 363.56 ± 0.5 Å²

Sequence: DYSSGFGGKYGVQADR [_DYSSGFGGK(Trimethyl (K))YGVQADR_]
- collision cross section [2]: 437.78 ± 0.016 Å²
- collision cross section [3]: 486.86 ± 1.8 Å²

Sequence: SPDEAYAIAKK [_SPDEAYAIAK(Gluratylation)K_]
- collision cross section [4]: 380.21 ± 0.73 Å²
- collision cross section [5]: 455.46 ± 1.2 Å²

Sequence: SPPLPEHQKIPCNSAEPK [_SPPLPEHQK(Succinyl)IPCNSAEPK_]
- collision cross section [6]: 539.73 ± 2.2 Å²

Sequence: TVSKVDDFLANEAK [_TVSK(Gluratylation)VDDFLANEAK_]
- collision cross section [4]: 427.28 ± 0.47 Å²

Sequence: TTEETSKPK [_TTEETSK(Dimethyl (K))PK_]
- collision cross section [7]: 338.18 ± 1.5 Å²
- collision cross section [8]: 409.31 Å²

Sequence: GTVPDDAVEALADSLGKK [_GTVPDDAVEALADSLGK(Formyl)K_]
- collision cross section [9]: 449.34 ± 1.3 Å²
- collision cross section (charge state: 3, modification: Formyl): 523.67 ± 1.8 Å²

Sequence: LLEEEDSKLK [_LLEEEDSK(hydroxyisobutyryl)LK_]
- collision cross section (charge state: 2, modification: hydroxyisobutyryl): 385.85 ± 5.2 Å²

Sequence: DYNVTANSK [_DY(Nitro (Y))NVTANSK_]
- collision cross section [10]: 334.81 ± 0.16 Å²

Sequence: SGNLTEDDKHNNAK [_SGNLTEDDK(Propionyl)HNNAK_]
- collision cross section [11]: 423.13 ± 0.36 Å²
- collision cross section (charge state: 3, modification: Propionyl): 471.16 Å²

Sequence: TSAYGPPTR [_TSAY(Phospho (Y))GPPTR_]
- collision cross section (charge state: 2, modification: Phospho (Y)): 336.75 ± 0.067 Å²

Sequence: GGPGSTLSFVGKR [_GGPGSTLSFVGK(Methyl (K))R_]
- collision cross section [12]: 391.3 ± 0.92 Å²
- collision cross section [13]: 452.34 ± 5 Å²

Sequence: STCTYVGAAK [_STCTY(Nitro (Y))VGAAK_]
- collision cross section [10]: 340.86 ± 0.72 Å²

Sequence: IINEPTAAAIAYGLDKK [_IINEPTAAAIAYGLDK(Butyryl)K_]
- collision cross section [14]: 465.29 ± 0.5 Å²
- collision cross section (charge state: 3, modification: Butyryl): 559.62 ± 0.45 Å²

Sequence: VDIDVPDVNIEGPDAKLK [_VDIDVPDVNIEGPDAK(Gluratylation)LK_]
- collision cross section [4]: 479.85 ± 0.49 Å²
- collision cross section [5]: 509.66 ± 1.3 Å²

Sequence: VDIDVPDVNIEGPDAKLK [_VDIDVPDVNIEGPDAK(Acetyl (K))LK_]
- collision cross section [1]: 477.46 ± 4.2 Å²

Sequence: GAPGPQGPPGPPGK [_GAPGPQGPPGPP(Hydroxyproline)GK_]
- collision cross section [15]: 359.87 ± 0.26 Å²

Sequence: SLKLNTAEDAK [_SLK(Formyl)LNTAEDAK_]
- collision cross section [9]: 369.44 ± 0.39 Å²

Sequence: DYSSGFGGKYGVQADR [_DYSSGFGGK(Butyryl)YGVQADR_]
- collision cross section [14]: 438.71 ± 1.6 Å²

Sequence: GFALVGVGSEASSKK [_GFALVGVGSEASSK(Acetyl (K))K_]
- collision cross section [1]: 429.07 ± 17 Å²
- collision cross section [16]: 499.93 ± 0.98 Å²

Sequence: GSLEKGSPEDK [_GSLEK(GlyGly (K))GSPEDK_]
- collision cross section [17]: 367.44 ± 0.9 Å²
- collision cross section [18]: 425.67 ± 1.6 Å²

Sequence: DLGKFQVATDALK [_DLGK(Trimethyl (K))FQVATDALK_]
- collision cross section [2]: 414.1 ± 0.6 Å²
- collision cross section [3]: 492.6 ± 1.8 Å²

Sequence: LQDVSGQLSSSKK [_LQDVSGQLSSSK(Formyl)K_]
- collision cross section [9]: 394.61 ± 0.21 Å²

Sequence: ITESVAETAQTIKK [_ITESVAETAQTIK(GlyGly (K))K_]
- collision cross section [17]: 453.63 ± 0.95 Å²
- collision cross section [18]: 514.8 ± 1.1 Å²

Sequence: LTEKELAEAASK [_LTEK(Biotin)ELAEAASK_]
- collision cross section (charge state: 2, modification: Biotin): 418.47 ± 3 Å²

Sequence: LSFGLEDEPLETATK [_LSFGLEDEPLET(HexNAc (ST))ATK_]
- collision cross section (charge state: 2, modification: HexNAc (ST)): 457.66 ± 0.56 Å²
- collision cross section (charge state: 3, modification: HexNAc (ST)): 480.97 Å²

Sequence: GEIGPPGPR [_GEIGPP(Hydroxyproline)GPR_]
- collision cross section [15]: 319.92 ± 1.1 Å²

Sequence: IDLPAENSNSETIIITGKR [_IDLPAENSNSETIIITGK(Acetyl (K))R_]
- collision cross section [16]: 569.63 Å²

Sequence: IGNSYFKEEK [_IGNSYFK(Propionyl)EEK_]
- collision cross section [11]: 375.51 ± 0.65 Å²

Sequence: DESFLGKLGGTLAR [_DESFLGK(Methyl (K))LGGTLAR_]
- collision cross section [12]: 408.12 ± 0.81 Å²
- collision cross section [13]: 471.83 ± 2.8 Å²

Sequence: ASEALLKQLK [_ASEALLK(Dimethyl (K))QLK_]
- collision cross section [7]: 366.02 ± 0.28 Å²
- collision cross section [8]: 439.24 ± 2.8 Å²

Sequence: DYSVTANSK [_DY(Nitro (Y))SVTANSK_]
- collision cross section [10]: 331.98 ± 0.55 Å²

Sequence: LTEKELAEAASK [_LTEK(Crotonyl)ELAEAASK_]
- collision cross section (charge state: 2, modification: Crotonyl): 394.89 ± 2.4 Å²

Sequence: DSINFLDHINGKK [_DSINFLDHINGK(Succinyl)K_]
- collision cross section [6]: 461.79 Å²
